The values that follow come from US20030077693A1.

In assay [1] the target is p97 (melanotransferrin), GPI-anchored, on the cell surface (human) (UniProt P08582). Nature of the assay: FACS, p97aWTBc3 cells after PI-PLC treatment, staining against untreated stained cells. (In general: A flow cytometer gives signals particle by particle.)
The target of assay [2] is transferrin added to TRVb and TRVb-1 cells (30 µg/mL, Example 19) (UniProt P02787). Briefly: Pandex cell fluorescence, plate 922 (FITC Abs pre-incubated with GAM FITC), untreated TRVb-1 cells + Tf only, stained with L235 (specificity control).
Chain of UniProt P02787 (P02787 20-698 limits assumed): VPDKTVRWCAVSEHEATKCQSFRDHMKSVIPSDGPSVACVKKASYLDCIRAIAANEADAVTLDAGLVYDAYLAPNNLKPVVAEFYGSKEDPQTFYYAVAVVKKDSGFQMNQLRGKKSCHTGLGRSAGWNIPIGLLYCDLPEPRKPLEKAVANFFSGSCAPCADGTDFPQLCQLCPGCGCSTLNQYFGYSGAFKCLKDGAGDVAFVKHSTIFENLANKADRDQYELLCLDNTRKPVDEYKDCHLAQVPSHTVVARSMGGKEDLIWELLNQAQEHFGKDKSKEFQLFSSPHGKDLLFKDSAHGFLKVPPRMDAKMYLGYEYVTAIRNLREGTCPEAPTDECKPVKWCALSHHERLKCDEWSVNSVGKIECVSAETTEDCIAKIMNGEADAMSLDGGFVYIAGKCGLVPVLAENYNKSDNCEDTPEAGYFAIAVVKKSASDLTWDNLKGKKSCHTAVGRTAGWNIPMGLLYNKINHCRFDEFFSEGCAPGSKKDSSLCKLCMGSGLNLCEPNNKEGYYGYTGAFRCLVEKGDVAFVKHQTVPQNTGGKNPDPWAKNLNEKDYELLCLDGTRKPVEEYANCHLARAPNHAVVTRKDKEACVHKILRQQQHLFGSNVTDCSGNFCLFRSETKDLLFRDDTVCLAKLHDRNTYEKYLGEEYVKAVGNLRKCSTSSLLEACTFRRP
Assay [3] addresses p97 (melanotransferrin), GPI-anchored, on the cell surface (human) (UniProt P08582). Nature of the assay: FACS, SK-MEL-28 cells, L235 hybridoma supernatant + GAM IgG-FITC.
Assay [4] has the same target. Nature of the assay: FACS, Sf9 cells infected with p97 recombinant virus p97 B-1-1, L235 + GAM IgG-FITC.
Assay [5] has the same target. Nature of the assay: FACS, SK-MEL-28 cells after Pronase treatment, staining against untreated stained cells.
The target is the same in assay [6]. Nature of the assay: FACS, p97aWTBc7 cells after PI-PLC treatment, staining against untreated stained cells.
The target of assay [7] is transferrin added to TRVb and TRVb-1 cells (30 µg/mL, Example 19) (UniProt P02787). Nature of the assay: Pandex cell fluorescence, plate 919, acid washed TRVb-1 cells + Tf only, stained with L235 (specificity control).
For assay [8] the target is unchanged. Nature of the assay: Pandex cell fluorescence, plate 922 (FITC Abs pre-incubated with GAM FITC), acid washed TRVb-1 cells + Tf only, stained with L235 (specificity control).
Assay [9] has as its target p97 (melanotransferrin), GPI-anchored, on the cell surface (human) (UniProt P08582). Nature of the assay: FACS, Sf9 cells infected with p97 recombinant virus p97 B-2-1, L235 + GAM IgG-FITC.
For assay [10] the target is unchanged. Briefly: FACS, Sf9 cells infected with p97 B-2-1, pre-incubated with PI-PLC, L235 + GAM IgG-FITC.
Assay [11] shares this target. Briefly: FACS, SK-MEL-28 cells pre-incubated with PI-PLC (removes p97), L235 + GAM IgG-FITC.
Assay [12] has as its target transferrin added to TRVb and TRVb-1 cells (30 µg/mL, Example 19) (UniProt P02787). Briefly: Pandex cell fluorescence, plate 925 (unlabelled Abs then GAM FITC), untreated TRVb-1 cells + Tf only, stained with L235 (specificity control).
In assay [13] the target is p97 (melanotransferrin), GPI-anchored, on the cell surface (human) (UniProt P08582). Briefly: FACS, SK-MEL-28 cells after PI-PLC treatment, staining against untreated stained cells.
Assay [14] shares this target. Nature of the assay: FACS, Sf9 cells infected with p97 B-1-1, pre-incubated with PI-PLC, L235 + GAM IgG-FITC.
The target in assay [15] is transferrin added to TRVb and TRVb-1 cells (30 µg/mL, Example 19) (UniProt P02787). Nature of the assay: Pandex cell fluorescence, plate 925 (unlabelled Abs then GAM FITC), acid washed TRVb-1 cells + Tf only, stained with L235 (specificity control).
The target is the same in assay [16]. Nature of the assay: Pandex cell fluorescence, plate 919, untreated TRVb-1 cells + Tf only, stained with L235 (specificity control).
Assay [17] concerns the target p97 (melanotransferrin), GPI-anchored, on the cell surface (human) (UniProt P08582). Nature of the assay: cell-based or functional assay.
Assay [18] addresses human transferrin receptor on cells (human) (UniProt P02786). Briefly: Pandex cell fluorescence, plate 919, untreated TRVb-1 cells, OKT9 then GAM FITC.
Chain of UniProt P02786 (P02786 whole entry): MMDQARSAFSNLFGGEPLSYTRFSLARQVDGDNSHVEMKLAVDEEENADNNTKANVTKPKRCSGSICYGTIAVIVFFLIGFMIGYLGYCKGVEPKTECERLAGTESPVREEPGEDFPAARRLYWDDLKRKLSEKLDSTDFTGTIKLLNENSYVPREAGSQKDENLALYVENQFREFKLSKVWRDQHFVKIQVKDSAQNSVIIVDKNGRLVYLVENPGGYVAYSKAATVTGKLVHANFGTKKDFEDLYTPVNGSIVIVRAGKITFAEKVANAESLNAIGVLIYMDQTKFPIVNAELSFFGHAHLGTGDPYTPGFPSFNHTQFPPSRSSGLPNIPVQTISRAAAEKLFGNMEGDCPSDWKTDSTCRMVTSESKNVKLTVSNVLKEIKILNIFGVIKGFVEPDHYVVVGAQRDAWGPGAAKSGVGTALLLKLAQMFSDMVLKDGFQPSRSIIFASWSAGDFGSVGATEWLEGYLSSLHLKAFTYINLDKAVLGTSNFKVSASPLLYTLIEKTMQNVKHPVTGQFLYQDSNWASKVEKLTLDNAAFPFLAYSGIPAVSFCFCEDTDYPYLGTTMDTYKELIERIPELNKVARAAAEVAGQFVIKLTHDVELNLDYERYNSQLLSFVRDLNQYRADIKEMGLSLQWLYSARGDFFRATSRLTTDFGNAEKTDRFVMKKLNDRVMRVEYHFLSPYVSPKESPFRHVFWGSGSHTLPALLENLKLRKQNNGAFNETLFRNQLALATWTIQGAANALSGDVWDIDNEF
Assay [19] shares this target. Nature of the assay: FACS, SK-MEL-28 cells after Pronase treatment, staining against untreated stained cells.
The target is the same in assay [20]. Nature of the assay: Pandex cell fluorescence, plate 911, untreated TRVb-1 cells, OKT9 then GAM FITC.
For assay [21] the target is unchanged. Nature of the assay: Pandex cell fluorescence, plate 919, acid washed TRVb-1 cells, OKT9 then GAM FITC.
Assay [22] has the same target. Briefly: FACS, SK-MEL-28 cells after PI-PLC treatment, staining against untreated stained cells.
The target is the same in assay [23]. Briefly: Pandex cell fluorescence, plate 911, acid washed TRVb-1 cells, OKT9 then GAM FITC.
Assay [24] has as its target Thy-1 on EL-4 mouse lymphoma cells (mouse) (UniProt P01831). Nature of the assay: FACS, EL-4 cells after Pronase treatment, staining against untreated stained cells.
Chain of UniProt P01831 (P01831 20-131): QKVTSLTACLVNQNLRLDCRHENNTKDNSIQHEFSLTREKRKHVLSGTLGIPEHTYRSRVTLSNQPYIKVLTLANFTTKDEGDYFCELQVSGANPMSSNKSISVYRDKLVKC
The target is the same in assay [25]. Nature of the assay: FACS, EL-4 cells after PI-PLC treatment, staining against untreated stained cells.

Chain of UniProt P08582 (P08582 20-709): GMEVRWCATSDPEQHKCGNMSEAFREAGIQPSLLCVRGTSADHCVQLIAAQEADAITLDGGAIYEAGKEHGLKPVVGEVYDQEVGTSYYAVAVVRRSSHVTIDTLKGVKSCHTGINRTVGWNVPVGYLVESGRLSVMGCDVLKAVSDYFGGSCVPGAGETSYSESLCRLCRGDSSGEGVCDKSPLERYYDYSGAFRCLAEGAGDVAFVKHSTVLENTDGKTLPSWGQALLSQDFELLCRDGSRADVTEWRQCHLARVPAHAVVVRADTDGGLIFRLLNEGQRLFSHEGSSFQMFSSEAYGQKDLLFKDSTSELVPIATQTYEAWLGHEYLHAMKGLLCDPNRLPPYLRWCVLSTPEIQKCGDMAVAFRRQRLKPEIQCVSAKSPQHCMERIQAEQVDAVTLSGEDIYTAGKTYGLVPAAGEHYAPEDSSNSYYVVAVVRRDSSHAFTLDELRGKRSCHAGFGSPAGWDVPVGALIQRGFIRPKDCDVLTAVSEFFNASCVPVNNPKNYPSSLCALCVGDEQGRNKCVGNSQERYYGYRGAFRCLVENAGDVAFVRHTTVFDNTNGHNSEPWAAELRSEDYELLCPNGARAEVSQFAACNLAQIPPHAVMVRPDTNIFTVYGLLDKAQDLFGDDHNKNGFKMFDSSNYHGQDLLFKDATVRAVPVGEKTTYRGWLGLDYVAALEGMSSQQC

Turning to L235 anti-p97 mouse monoclonal antibody, the Fluorescene Intensity (% of Control) in assay [1] was 6.8 % of Control; in assay [5] it was 82.6 % of Control; in assay [6] it was 7.5 % of Control; in assay [13] it was 10.8 % of Control. Moreover, the fluorescence in assay [2] was 7440; in assay [7], 5320; in [8] it was 6220; in assay [12] it was 2520; in [15], 2710; in assay [16], 5330. Moreover, the fluorescence less control (TRVb) was determined as 0 in [2]; 1120 in [7]; 107 in assay [8]; 237 in assay [12]; 758 in assay [15]; 0 in [16]. For the same substance, the FLUORESCENCE-converted linear value in [3] was 128; in assay [4], 112; in assay [9], 97.4; in assay [10], 6.85; in assay [11], 4.52; in assay [14], 5.74. The substance also registered an internalization of Fe from 59Fe-citrate by p97TRVb cells in [17] of 31%.

On to “OKT9 anti-human transferrin receptor mouse monoclonal antibody”, for which the fluorescence in assay [18] came to 13600; in assay [20] it was 4760; in assay [21], 12500; in assay [23] it was 7140. In addition, the fluorescence less control came out at 11500 in assay [18], 3250 in assay [20], 10400 in [21] and 5060 in assay [23]. In addition, the figures for the Fluorescene Intensity (% of Control) in assay [19] and in assay [22] were 15.9 % of Control and 120 % of Control, respectively.

As for T24/37.1 MAb (anti-Thy-1) (antibody), the Fluorescene Intensity (% of Control) is 136 % of Control in assay [24] and 32.5 % of Control in assay [25].
